First the molecules themselves.
B1: Flag-WHRN (wild type) [mouse] / GFP-WDSUB1 (WD repeat, SAM, and U-box domain-containing protein 1) [mouse] (parent)
chain 1: MNAQLDGLSVSSSSTGSLGSAAAAAGGGGGAGLRLLSANVRQLHQALTALLSEPEREQFTHCLNAYHARRNVFDLVRTLRVLLDSPVKRRLLPMLRLVIPRSDQLLFDQYTAEGLYLPATTPYRQPAWAAPDGAGPGEVRLVSLRRAKAHEGLGFSIRGGSEHGVGIYVSLVEPGSLAEKEGLRVGDQILRVNDKSLARVTHAEAVKALKGSKKLVLSVYSAGRIPGGYVTNHIYTWVDPQGRSTSPPSSLPQPHGSTLRQREDDRRSTLHLLQSGDEKKVNLVLGDGRSLGLTIRGGAEYGLGIYITGVDPGSEAESSGLKVGDQILEVNGRSFLNILHDEAVKLLKSSRHLILTVKDVGRLPHARTTVDQTKWIASSRIGESVANSAGFPGDHTEEGTSKPGFYKGPAGSQVTLSSLGNQTRALLDDQARHLLTEQERATMMYYLAQYRGGTISVEAMVMALFELLNTHAKFSLLSEVRSIISPQDLDRFDHLVLRREIESMKARQPPGPGVGDTYSMVSYSDTGSSTGSHGTSTTVSSARERLLWLIDLMENTLDLEGTGETTQGSTNALPDVSVDDVKSPSEDLPGIKPPPPPPPLAQGHDRLLGQPRKPGREDPAPLSSAAHSGIVFSAPRNRSPPPGTAPTPGPSSAQDSPSSPIYASISHANPSSRKPLDTHLALVNQHPIGPFPRVQSPPHLKSPPAETPGAGACLPPPSPSEHPDAVGANQHFVLVEVHRPDSEPDVNEVRALPQTRTASTLSQLSDSGQTLSEDSGVDAGETEASTSGRGRQTASAKNKNGKEQPRTERTAEGANKPPGLLEPTSTLVRVRKSAATLGIAIEGGANTRQPLPRIVTIQRGGSAHNCGQLKVGHVILEVNGQTLRGKEHKEAARIIAEAFKTKERDYIDFLVTEFNVML
chain 2: MVRLIHTLADHGDDVSCCAFSAALLATCSLDKTIRLYSLSDFAELPYSPLKFHTYAVHCCCFSPSGHVLASCSTDGTTVLWSSHSGHTLTVLEQPGGSPVRVCCFSPDSAYLASGAADGSIALWNAQTYKLYRCGSVKDSSLVACAFSPDGGLFVTGSSGGDLTVWDDRMRCLHSEKAHDLGITCCSFSSQPLSGGEGLQSYQLASCGQDCEIKLWAVTITRVLGFELKYKSTLSGHCAPVLACAFSHDGKMLASGSVDKSVIIHGIGPQSVLHTLTQHTRYVTTCAFAPNTLLLATGSMDKTVNIWQFDLETPCQGSMNDPLKHFTEEWSEEDVSVWLRAQGLEDLVGIFRANNIDGKELLHLTKESLAGDLKIESLGLRSKVLRSIEELRAKMDSLSSGIPDEFICPITRELMKDPVIASDGYSYEREAMESWIHKKKRTSPMTNLALPSLVLTPNRTLKMAINRWLETHEK

The variants in this assay derive from B1. Kind of assay: co-immunoprecipitation (band intensity quantified). As to conditions: with GFP-WDSUB1 (WD repeat, SAM, and U-box domain-containing protein 1) [mouse]; HEK293 cells; n = 3; parent: 1; read off a plot.
Take chain 1 S37E: the ratio to parent was determined as 1. Regarding chain 1 S85E, the ratio to parent worked out at 1.

Turning to chain 1 S384E, the ratio to parent is 1. With chain 1 S156E, the ratio to parent worked out at 1.8.

On to chain 1 S246E, for which the ratio to parent was determined as 2.1. For chain 1 S156E S246E the value was 2.6.

These data come from PMC10238197, “Deafness‐Associated ADGRV1 Mutation Impairs USH2A Stability through Improper Phosphorylation of WHRN and WDSUB1 Recruitment” (Advanced Science, 2023).
